Target: T1, Buforin I
T1 chain: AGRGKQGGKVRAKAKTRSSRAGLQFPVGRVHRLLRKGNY

B1: Botulinum toxin B (protein)
chain 1: PVTINNFNYNDPIDNNNIIMMEPPFARGTGRYYKAFKITDRIWIIPERYTFGYKPEDFNKSSGIFNRDVCEYYDPDYLNTNDKKNIFLQTMIKLFNRIKSKPLGEKLLEMIINGIPYLGDRRVPLEEFNTNIASVTVNKLISNPGEVERKKGIFANLIIFGPGPVLNENETIDIGIQNHFASREGFGGIMQMKFCPEYVSVFNNVQENKGASIFNRRGYFSDPALILMHELIHVLHGLYGIKVDDLPIVPNEKKFFMQSTDAIQAEELYTFGGQDPSIITPSTDKSIYDKVLQNFRGIVDRLNKVLVCISDPNININIYKNKFKDKYKFVEDSEGKYSIDVESFDKLYKSLMFGFTETNIAENYKIKTRASYFSDSLPPVKIKNLLDNEIYTIEEGFNISDKDMEKEYRGQNKAINKQAYEEISKEHLAVYKIQMCKSVK
chain 2: APGICIDVDNEDLFFIADKNSFSDDLSKNERIEYNTQSNYIENDFPINELILDTDLISKIELPSENTESLTDFNVDVPVYEKQPAIKKIFTDENTIFQYLYSQTFPLDIRDISLTSSFDDALLFSNKVYSFFSMDYIKTANKVVEAGLFAGWVKQIVNDFVIEANKSNTMDKIADISLIVPYIGLALNVGNETAKGNFENAFEIAGASILLEFIPELLIPVVGAFLLESYIDNKNKIIKTIDNALTKRNEKWSDMYGLIVAQWLSTVNTQFYTIKEGMYKALNYQAQALEEIIKYRYNIYSEKEKSNINIDFNDINSKLNEGINQAIDNINNFINGCSVSYLMKKMIPLAVEKLLDFDNTLKKNLLNYIDENKLYLIGSAEYEKSKVNKYLKTIMPFDLSIYTNDTILIEMFNKYNSEILNNIILNLRYKDNNLIDLSGYGAKVEVYDGVELNDKNQFKLTSSANSKIRVTQNQNIIFNSVFLDFSVSFWIRIPKYKNDGIQNYIHNEYTIINCMKNNSGWKISIRGNRIIWTLIDINGKTKSVFFEYNIREDISEYINRWFFVTITNNLNNAKIYINGKLESNTDIKDIREVIANGEIIFKLDGDIDRTQFIWMKYFSIFNTELSQSNIEERYKIQSYSEYLKDFWGNPLMYNKEYYMFNAGNKNSYIKLKKDSPVGEILTRSKYNQNSKYINYRDLYIGEKFIIRRKSNSQSINDDIVRKEDYIYLDFFNLNQEWRVYTYKYFKKEEEKLFLAPISDSDEFYNTIQIKEYDEQPTYSCQLLFKKDEESTDEIGLIGIHRFYESGIVFEEYKDYFCISKWYLKEVKRKPYNLKLGCNWQFIPKDEGWTE
B1 was tested, and the “substrate cleavage in the endopeptidase assay” value was “B-I is not a substrate for BttxB”.

— US20050113304
